Measured values taken from patent US20200369728A1, “PEPTIDOMIMETIC MACROCYCLES AND USES THEREOF” (Aileron Therapeutics, Inc., priority 2015, published 2020).

Tests used:
MV4-11 = assay: WST-1 / MTT cell viability, MV4-11; settings: MV4-11, sequential treatment, 72 hrs
Procedure: Initially, various MV4-11 cell numbers were plated and evaluated 3-7 days later to determine the optimal number of cells to be plated and treatment duration.
Cells were evaluated for viability by WST-1 assay or MTT assay 3-7 days after beginning treatment.
A drug combination index plot was used to assess the synergistic, additive, or antagonistic properties of each combination treatment. […] Combination index (CI) values were calculated using the CompuSyn software. The data were expressed as log(CI).

MDM2 (In-house, 41 kD) [1] = biological target: T1, MDM2 (In-house, 41 kD) (UniProt Q00987 1-125, limits assumed); assay: competitive fluorescence polarization, displacement of FAM-labeled linear peptide from MDM2; grade decoded by the scale of Table 4
T1 construct: Construct limits and any tag are unknown; also called HDM2

MDMX (In-house, 40 kD) [2] = biological target: T2, MDMX (In-house, 40 kD) (UniProt O15151 1-120, limits assumed); assay: competitive fluorescence polarization, displacement of FAM-labeled linear peptide from MDMX; grade decoded by the scale of Table 4
T2 construct: Construct limits and any tag are unknown; also called MDM4
T2 sequence (looked up): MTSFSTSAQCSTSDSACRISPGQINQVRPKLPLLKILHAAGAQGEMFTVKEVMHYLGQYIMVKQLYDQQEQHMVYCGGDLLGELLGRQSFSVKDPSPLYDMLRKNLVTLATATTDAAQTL

MDM2 (In-house, 41 kD) [3] = biological target: MDM2 (In-house, 41 kD) (UniProt Q00987); assay: competitive fluorescence polarization, displacement of FAM-labeled linear peptide from MDM2; grade decoded by the scale of Table 4
MDMX (In-house, 40 kD) [4] = biological target: T3, MDMX (In-house, 40 kD) (UniProt O15151); assay: competitive fluorescence polarization, displacement of FAM-labeled linear peptide from MDMX; grade decoded by the scale of Table 4
T3 sequence (looked up): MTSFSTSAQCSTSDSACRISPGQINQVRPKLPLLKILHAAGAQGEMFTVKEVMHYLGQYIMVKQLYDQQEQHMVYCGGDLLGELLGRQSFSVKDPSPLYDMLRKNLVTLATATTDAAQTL

T1 sequence (Q00987 1-125 limits assumed): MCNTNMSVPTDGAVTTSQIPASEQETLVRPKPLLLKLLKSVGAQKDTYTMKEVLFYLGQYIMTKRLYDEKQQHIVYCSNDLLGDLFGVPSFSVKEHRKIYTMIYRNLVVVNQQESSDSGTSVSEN
Chain of MDM2 (In-house, 41 kD) (UniProt Q00987) (Q00987 1-125 limits assumed): as above

Row | Molecule | Ki (MDM2 (In-house, 41 kD) [1]) | further results
1 | Nc1ncn([C@@H]2O[C@H](CO)[C@@H](O)[C@H]2O)c(=O)n1 [azacitidine, reference compound] |  | order of addition: effect on cell growth, AP1 and azacitidine (MV4-11): suppressed MV4-11 cell growth with or without AP1
2 | LTFAEYWAQAAS (not fully specified; N-terminal acetyl; $r8 at 4 crosslinked by all-carbon olefin staple to $ at 11; Cba (cyclobutyl alanine) at 10; C-terminal amide, stapled peptidomimetic macrocycle) [SP595, Ac-LTF$r8EYWAQCba$S-NH2] | > 1000 nM | 
3 | LTFAEYWAXLAAAAAAA (not fully specified; N-terminal acetyl; $r8 at 4 crosslinked by all-carbon olefin staple to $ at 11; Aib (2-aminoisobutyric acid) at 9; D-Ala (a) at C-terminus; C-terminal amide, stapled peptidomimetic macrocycle) [SP609, Ac-LTF$r8EYWAAibL$AAAAAa-NH2] | ≤ 10 nM | 
4 | LTFAEYWAQLAAAAAAA (not fully specified; N-terminal acetyl; $r8 at 4 crosslinked by all-carbon olefin staple to $ at 11; Gla at 5 (abbreviation not defined in the filing); D-Ala (a) at C-terminus; C-terminal amide, stapled peptidomimetic macrocycle) [SP602, Ac-LTF$r8GlaYWAQL$AAAAAa-NH2] | ≤ 10 nM | Ki (MDMX (In-house, 40 kD) [2]): ≤ 10 nM
5 | LTFAEYWALLAAAAAAA (not fully specified; N-terminal acetyl; $r8 at 4 crosslinked by all-carbon olefin staple to $ at 11; D-Ala (a) at C-terminus; C-terminal amide, stapled peptidomimetic macrocycle) [SP608, Ac-LTF$r8EYWALL$AAAAAa-NH2] | ≤ 10 nM | 
6 | LTFAQYWAQLAAAAAAA (not fully specified; N-terminal acetyl; $r8 (alpha-Me R8-octenyl-alanine) at 4 crosslinked by all-carbon olefin staple to $ (alpha-Me S5-pentenyl-alanine) at 11; D-Ala (a) at C-terminus; C-terminal amide, stapled peptidomimetic macrocycle) [SP600, Ac-LTF$r8QYWAQL$AAAAAa-NH2] | ≤ 10 nM | Ki (MDMX (In-house, 40 kD) [2]): ≤ 10 nM
7 | LTFAEYWAHLAAAAAAA (not fully specified; N-terminal acetyl; $r8 at 4 crosslinked by all-carbon olefin staple to $ at 11; D-Ala (a) at C-terminus; C-terminal amide, stapled peptidomimetic macrocycle) [SP613, Ac-LTF$r8EYWAHL$AAAAAa-NH2] | ≤ 10 nM | 
8 | LTFAFYWAQLAAAAAAA (not fully specified; N-terminal acetyl; $r8 at 4 crosslinked by all-carbon olefin staple to $ at 11; F4g at 5 (abbreviation not defined in the filing); D-Ala (a) at C-terminus; C-terminal amide, stapled peptidomimetic macrocycle) [SP603, Ac-LTF$r8F4gYWAQL$AAAAAa-NH2] | ≤ 10 nM | Ki (MDMX (In-house, 40 kD) [2]): ≤ 10 nM
9 | LTFAEYWASLAAAAAAA (not fully specified; N-terminal acetyl; $r8 at 4 crosslinked by all-carbon olefin staple to $ at 11; D-Ala (a) at C-terminus; C-terminal amide, stapled peptidomimetic macrocycle) [SP610, Ac-LTF$r8EYWASL$AAAAAa-NH2] | ≤ 10 nM | 
10 | LTFAEYWANLAAAAAAA (not fully specified; N-terminal acetyl; $r8 at 4 crosslinked by all-carbon olefin staple to $ at 11; D-Ala (a) at C-terminus; C-terminal amide, stapled peptidomimetic macrocycle) [SP611, Ac-LTF$r8EYWANL$AAAAAa-NH2] | ≤ 10 nM | 
11 | LTFAEYWAQLAAAAAAA (not fully specified; N-terminal acetyl; $r8 at 4 crosslinked by all-carbon olefin staple to $ at 11; pY at 6 (abbreviation not defined in the filing); D-Ala (a) at C-terminus; C-terminal amide) [SP615, Ac-LTF$r8EpYWAQL$AAAAAa-NH2] |  | Ki (MDM2 (In-house, 41 kD) [3]): < 10 nM; Ki (MDMX (In-house, 40 kD) [4]): < 10 nM
12 | LTFAEYWAXLAAAAAAA (not fully specified; N-terminal acetyl; $r8 at 4 crosslinked by all-carbon olefin staple to $ at 11; Cit (citrulline) at 9; D-Ala (a) at C-terminus; C-terminal amide, stapled peptidomimetic macrocycle) [SP612, Ac-LTF$r8EYWACitL$AAAAAa-NH2] | ≤ 10 nM | 
13 | LTFAEYWXQAASAA (not fully specified; N-terminal acetyl; $r8 at 4 crosslinked by all-carbon olefin staple to $ at 11; Cou7 at 8 (structure shown only as a drawing); Cba (cyclobutyl alanine) at 10; C-terminal amide, stapled peptidomimetic macrocycle) [SP433, Ac-LTF$r8EYWCou7QCba$SAA-NH2] | ≤ 10 nM | 
14 | ALTFAEYWAQAASAA (not fully specified; N-terminal 5-TAMRA on beta-alanine (Ba); $r8 crosslinked by all-carbon olefin staple to $; Cba (cyclobutyl alanine); C-terminal amide, TAMRA-labeled stapled peptidomimetic macrocycle) [SP686, 5-TAMRA-BaLTF$r8EYWAQCba$SAA-NH2] | ≤ 10 nM | 
